# According to paper PMC5507929, “Structural and Biochemical Characterization of Apicomplexan Inorganic Pyrophosphatases” (Scientific Reports, 2017):
# Values joined by “and” are separate entries in the source; they are usually repeats but may differ in a detail not shown here. Equal entries are not always repeated.
# B1: PfPPase (Plasmodium falciparum 3D7) (protein)
# chain: MGSKLINVEGGNNQDDNKYNSNNVISINNKVNKNDYFIETNKELKINLNFQNNNIISNIFSNINIYDKISNIFINNKKTYMLKYNNNINEENFFISYFEKKDDNFVPISPWHHIDLKNDDGTYNMIVEITKYNYIKLEIQLREKFNVIKQDKKKGKLRYYHNSIYWNYGALPQTYEYPKHIYQNKSKKNKEALLFTGDNDPLDILDIGSACLKIGQVVPVKILGAFTLIDEGELDWKIIAINKEDKHYEDINSLSDIEKYYPHTLSLLLEWFRSYKMADTKKLNLISKQLYDKKESEDLIMKTHHYYLEFREDVKKLKEEHSKETIKEHDYVNAQNIQFNYDKLNNNDDEPMENNLLEDINITYYKSDSAYKPDLNIWTP
# notes: full length 1-380, pETM41, MBP-6xHis tag cleaved with TEV, E. coli BL21-CodonPlus; ~45 kDa, dimer; crystal protein Se-Met labelled
# What was measured:
# [1] = biological target: Toxoplasma gondii soluble inorganic pyrophosphatase (TgPPase) (Toxoplasma gondii); assay: SEC; TgPPase in solution (Supplementary Figure 1b); the sentence names no method; gel filtration analysis is named in p-0022
# PfPPase = biological target: T1, PfPPase (Plasmodium falciparum, UniProt O77392); settings: active site (P1 phosphate position), chains B and C; Se-Met protein crystallised with 1 mM PPi and 3 mM MgCl2
# T1 construct: gene MAL3P6.3
# T1 sequence (O77392 1-380): B1 chain
# [2] = biological target: Plasmodium falciparum soluble inorganic pyrophosphatase (PfPPase), full length (Plasmodium falciparum); assay: native gel or EMSA; blue native PAGE of purified recombinant PfPPase from E. coli
# [3] = biological target: Plasmodium falciparum soluble inorganic pyrophosphatase (PfPPase), full length (Plasmodium falciparum); assay: SEC; gel permeation chromatography on S-200 16/60; 30 mM HEPES-Na pH 7.2, 100 mM NaCl, 1 mM DTT; absorbance at 280 nm, compared with Mwt markers
# [4] = substrate: Nc1ncnc2c1ncn2[C@@H]1O[C@H](COP(=O)(O)OP(=O)(O)OP(=O)(O)O)[C@@H](O)[C@H]1O; assay: malachite green phosphate release assay; type: biochemical, Plasmodium falciparum; settings: 1 mM Zn2+, pH 7.2, 37 °C, 100 mM NaCl, pH 7.2
# Description: (§1) malachite green phosphate release assay on PfPPase
# [5] = substrate: O=P(O)(O)OP(=O)(O)O; assay: malachite green phosphate release assay; type: biochemical, Plasmodium falciparum; settings: 3 mM Mg2+, pH 7.2, 37 °C, 100 mM NaCl, 1.4 nM enzyme, pH 7.2
# Description: as §1
# [6] = substrate: O=P(O)(O)OP(=O)(O)OP(=O)(O)O; assay: malachite green phosphate release assay; type: biochemical, Plasmodium falciparum; settings: 1 mM Zn2+, pH 7.0, 37 °C, 100 mM NaCl, pH 7.0
# Description: as §1
molecule,measurement,setting,value
Toxoplasma gondii soluble inorganic pyrophosphatase (TgPPase) (enzyme),stoichiometry N,[1],2
O=P(O)(O)O [Pi],"X-ray crystal structure, 3.2 Å",PfPPase,PfPPase active site showed electron density for only one Pi molecule
"Plasmodium falciparum soluble inorganic pyrophosphatase (PfPPase), full length (enzyme)",stoichiometry N,[2],2
same,stoichiometry N,[3],2 and 4
B1,Km,[4],64 ± 4.2 µM
same,kcat,[4],6.3 ± 1.2 s⁻¹
same,kcat/Km,[4],90000 M⁻¹ s⁻¹
same,Km,[5],10 ± 1.8 µM
same,kcat,[5],266 ± 11.4 s⁻¹
same,kcat/Km,[5],2.66e+07 M⁻¹ s⁻¹
same,Km,[6],1.6 ± 0.3 µM
same,kcat,[6],26.3 ± 3 s⁻¹
same,kcat/Km,[6],1.6e+07 M⁻¹ s⁻¹
